For assay [1], the target named is EC0, mutant E-cadherin protein that completely lacks the cytoplasmic domain. The assay is described as follows: cross-linking.
Assay [2] addresses EΔC71, mutant E-cadherin polypeptide with COOH-terminal deletion of 71 amino acid residues. Description: co-IP.
The target of assay [3] is EΔC37, mutant E-cadherin polypeptide with COOH-terminal deletion of 37 amino acid residues. The assay is described as follows: co-IP.

The term stoichiometry N denotes a count of units in the complex or per binding partner. In turn, “EC0, mutant E-cadherin protein that completely lacks the cytoplasmic domain (domain or fragment)” showed a stoichiometry N in assay [1] of 2.

B1: p120 (natural protein)
chain: MDDSEVESTASILASVKEQEAQFEKLTRALEEERRHVSAQLERVRVSPQDANPLMANGTLTRRHQNGRFVGDADLERQKFSDLKLNGPQDHSHLLYSTIPRMQEPGQIVETYTEEDPEGAMSVVSVETSDDGTTRRTETTVKKVVKTVTTRTVQPVAMGPDGLPVDASSVSNNYIQTLGRDFRKNGNGGPGPYVGQAGTATLPRNFHYPPDGYSRHYEDGYPGGSDNYGSLSRVTRIEERYRPSMEGYRAPSRQDVYGPQPQVRVGGSSVDLHRFHPEPYGLEDDQRSMGYDDLDYGMMSDYGTARRTGTPSDPRRRLRSYEDMIGEEVPSDQYYWAPLAQHERGSLASLDSLRKGGPPPPNWRQPELPEVIAMLGFRLDAVKSNAAAYLQHLCYRNDKVKTDVRKLKGIPVLVGLLDHPKKEVHLGACGALKNISFGRDQDNKIAIKNCDGVPALVRLLRKARDMDLTEVITGTLWNLSSHDSIKMEIVDHALHALTDEVIIPHSGWEREPNEDCKPRHIEWESVLTNTAGCLRNVSSERSEARRKLRECDGLVDALIFIVQAEIGQKDSDSKLVENCVCLLRNLSYQVHREIPQAERYQEAAPNVANNTGPHAASCFGAKKGKDEWFSRGKKPIEDPANDTVDFPKRTSPARGYELLFQPEVVRIYISLLKESKTPAILEASAGAIQNLCAGRWTYGRYIRSALRQEKALSAIADLLTNEHERVVKAASGALRNLAVDARNKELIGKHAIPNLVKNLPGGQQNSSWNFSEDTVISILNTINEVIAENLEAAKKLRETQGIEKLVLINKSGNRSEKEVRAAALVLQTIWGYKELRKPLEKEGWKKSDFQVNLNNASRSQSSHSYDDSTLPLIDRNQKSDKKPDREEIQMSNMGSNTKSLDNNYSTPNERGDHNRTLDRSGDLGDMEPLKGTTPLMQDEGQESLEEELDVLVLDDEGGQVSYPSMQKI
In the case of B1, the amount of p120 coprecipitated, percent of EK cells in assay [2] and in assay [3] was 10% throughout.
